Experiment [1] addresses T1, His-tagged lamin A/C 250-400 fragment, L362C (human, UniProt P02545 250-400, L362C).
T1 construct: lamin A/C, human, residues 250-400 with L362C; also called His-lamin 250-400 L362C; source: E. coli BL21 (DE3), purified (cobalt-Talon, HiTrap Q, SEC); not shown: His-tag, N-terminal, kept
T1 sequence (looked up): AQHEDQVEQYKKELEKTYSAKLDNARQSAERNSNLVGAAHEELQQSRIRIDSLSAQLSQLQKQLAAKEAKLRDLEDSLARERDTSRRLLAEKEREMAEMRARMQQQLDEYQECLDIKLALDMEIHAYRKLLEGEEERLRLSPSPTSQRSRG
The experiment in a line: pull-down; His-tagged lamin 250-400 fragments on Ni-NTA resin with the lamin 1-125 fragment; reducing condition; SDS-PAGE. Particulars: both partners purified.

In experiment [2] the target is T2, His-tagged lamin A/C 250-400 fragment, wild type (human, UniProt P02545 250-400).
T2 construct: lamin A/C, human, residues 250-400 (C-terminal part of coil 2); pProEx-HTa vector: a TEV protease cleavage site stands between the His-tag and the lamin residues; also called His-lamin 250-400 WT; source: E. coli BL21 (DE3), purified (cobalt-Talon, HiTrap Q, SEC); not shown: His-tag, N-terminal, kept
T2 sequence (looked up): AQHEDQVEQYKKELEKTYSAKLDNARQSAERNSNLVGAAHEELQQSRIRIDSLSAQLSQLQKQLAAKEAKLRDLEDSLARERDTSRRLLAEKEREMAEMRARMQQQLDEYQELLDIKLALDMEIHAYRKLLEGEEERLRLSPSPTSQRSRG
The experiment in a line: pull-down; His-tagged lamin 250-400 fragments on Ni-NTA resin with the lamin 1-125 fragment; nonreducing (oxidized) condition; SDS-PAGE. Particulars: both partners purified.

B1: lamin A/C 1-125 fragment, wild type, prey of Figure 6b (domain or fragment, human, UniProt P02545 1-125, looked up)
chain: METPSQRRATRSGAQASSTPLSPTRITRLQEKEDLQELNDRLAVYIDRVRSLETENAGLRLRITESEEVVSREVSGIKAAYEAELGDARKTLDSVAKERARLQLELSKVREEFKELKARNTKKEG
notes: the pull-down methods say that preys were His-tag cleaved lamin proteins; the purification paragraph names TEV cleavage only for lamin 250-400; also called coil 1a fragment; source: E. coli BL21 (DE3), purified (cobalt-Talon, HiTrap Q, SEC); not shown: His-tag, N-terminal, cleaved
Consider B1, for which the binding result in experiment [1] and in experiment [2] was “binds” each time.

The values are drawn from publication PMC7824274, “Separation of Coiled-Coil Structures in Lamin A/C Is Required for the Elongation of the Filament” (Cells, 2020).
